Laboratory results: publication PMC6262623, “The Intermolecular Interaction of Ephexin4 Leads to Autoinhibition by Impeding Binding of RhoG” (Cells, 2018)
Substitutions are numbered along the chain they refer to.

How the values were obtained:
[1] = target: T1, FLAG-tagged wild-type Ephexin4 (murine, UniProt Q3U5C8 1-713); assay: cell-based or functional assay
T1 sequence (looked up): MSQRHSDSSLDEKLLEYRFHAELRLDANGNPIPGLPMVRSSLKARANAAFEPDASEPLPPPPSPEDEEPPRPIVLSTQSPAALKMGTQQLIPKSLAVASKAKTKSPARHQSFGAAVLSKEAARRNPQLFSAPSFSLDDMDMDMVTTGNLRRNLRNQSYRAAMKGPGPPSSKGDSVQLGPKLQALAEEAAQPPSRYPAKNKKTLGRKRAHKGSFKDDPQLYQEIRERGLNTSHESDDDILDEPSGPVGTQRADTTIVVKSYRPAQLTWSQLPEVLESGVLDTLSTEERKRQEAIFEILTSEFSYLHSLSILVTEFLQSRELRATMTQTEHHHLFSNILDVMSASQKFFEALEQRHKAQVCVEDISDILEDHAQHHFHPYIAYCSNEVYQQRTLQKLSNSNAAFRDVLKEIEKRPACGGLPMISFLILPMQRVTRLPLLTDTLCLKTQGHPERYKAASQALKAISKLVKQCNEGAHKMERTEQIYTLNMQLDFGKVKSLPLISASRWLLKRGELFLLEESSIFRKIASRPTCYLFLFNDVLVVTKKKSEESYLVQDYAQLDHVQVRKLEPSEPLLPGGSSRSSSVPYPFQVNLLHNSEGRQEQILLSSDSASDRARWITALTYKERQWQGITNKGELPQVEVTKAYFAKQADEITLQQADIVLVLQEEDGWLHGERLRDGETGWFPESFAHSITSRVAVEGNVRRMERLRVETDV

[2] = target: T2, FLAG-tagged Ephexin4^E295A (murine, UniProt Q3U5C8 1-713, E295A); assay: cell-based or functional assay
T2 sequence (looked up): T1 sequence (looked up) with E295A

B1: GFP-RhoG (natural protein)
chain: not shown
[1]
  level of active (GTP-bound) RhoG precipitated by GST-Elmo2^N-term from 293T cells expressing wild-type Ephexin4, against control cells (Figure 3a,b): 1.6 fold
  level of active endogenous RhoG (293T) precipitated by GST-Elmo2^N-term from cells expressing wild-type Ephexin4 (Figure 3c,d): 1.6 fold
[2]
  level of active (GTP-bound) RhoG precipitated by GST-Elmo2^N-term from 293T cells expressing Ephexin4^E295A, against control cells (Figure 3a,b): 2.9 fold
  level of active endogenous RhoG (293T) precipitated by GST-Elmo2^N-term from cells expressing Ephexin4^E295A (Figure 3c,d): 2.6 fold
